Assay results reported in paper PMC5001605.

Target: archaeal KEOPS complex (pfuPcc1, mjKae1, mjBud32, mjCgi121) (Pyrococcus furiosus | Methanococcus jannaschii) (UniProt Q8TZI1)
Assay: SEC-MALS

archaeal KEOPS complex (pfuPcc1, mjKae1, mjBud32, mjCgi121) (from UniProt Q8TZI1 1-82; Q58530 1-328; Q58530 1-535; Q57646 1-145)
stoichiometry N: 2
